Experimental data reported in patent publication US20230293673A1 (LA JOLLA INSTITUTE FOR IMMUNOLOGY, published 2023).

Target: T1, gH ectodomain, FLAG-tagged and lacking its transmembrane anchor (gHecto^F_TBopt) (human cytomegalovirus (HCMV) strain TB40, UniProt P12824 24-709)
T1 sequence: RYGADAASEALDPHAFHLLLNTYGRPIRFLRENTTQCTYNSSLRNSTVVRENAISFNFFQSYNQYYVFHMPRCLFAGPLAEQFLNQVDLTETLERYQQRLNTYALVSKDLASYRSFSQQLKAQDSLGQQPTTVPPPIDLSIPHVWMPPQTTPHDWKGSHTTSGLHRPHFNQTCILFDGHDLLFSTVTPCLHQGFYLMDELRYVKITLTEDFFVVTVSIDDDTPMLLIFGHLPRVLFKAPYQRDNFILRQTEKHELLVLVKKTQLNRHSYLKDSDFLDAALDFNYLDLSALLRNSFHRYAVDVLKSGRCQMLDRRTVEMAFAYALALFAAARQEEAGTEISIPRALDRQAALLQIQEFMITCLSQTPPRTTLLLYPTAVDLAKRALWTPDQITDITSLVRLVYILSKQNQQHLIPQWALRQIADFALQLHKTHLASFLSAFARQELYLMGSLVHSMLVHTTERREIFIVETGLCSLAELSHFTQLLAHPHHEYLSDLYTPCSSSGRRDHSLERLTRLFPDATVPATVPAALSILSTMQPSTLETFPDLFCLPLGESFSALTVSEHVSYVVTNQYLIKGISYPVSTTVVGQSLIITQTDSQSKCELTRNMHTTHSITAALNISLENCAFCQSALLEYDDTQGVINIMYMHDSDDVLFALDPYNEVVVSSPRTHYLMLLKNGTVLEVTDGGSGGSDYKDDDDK
Assay: His-tag purification from Expi293F supernatant after co-expression, Western blot (FIG. 2B)

B1: octahistidine-tagged UL141 ectodomain (UL141ecto_3C His) (other)
chain: DIAEKMWAENYETTSPAPVLVAEGEQVTIPCTVMTHSWPMVSIRARFCRSHDGSDELILDAVKGHRLMNGLQYRLPYATWNFSQLHLGQIFSLTFNVSTDTAGMYECVLRNYSHGLIMQRFVILTQLETLSRPDEPCCTPALGRYSLGDQIWSPTPWRLRNHDCGMYRGFQRNYFYIGRADAEDCWKPACPDEEPDRCWTVIQRYRLPGDCYRSQPHPPKFLPVTPAPPADIDTGMSPWATR
notes: extracellular domain; not shown: C-terminal '3C' site and octahistidine tag
  binding result: binds
